A value given as a limit tells only on which side of the number the result lay.

T1: PrgI-SipD
T1 construct: also called PrgI-SipD fusion
T1 chain: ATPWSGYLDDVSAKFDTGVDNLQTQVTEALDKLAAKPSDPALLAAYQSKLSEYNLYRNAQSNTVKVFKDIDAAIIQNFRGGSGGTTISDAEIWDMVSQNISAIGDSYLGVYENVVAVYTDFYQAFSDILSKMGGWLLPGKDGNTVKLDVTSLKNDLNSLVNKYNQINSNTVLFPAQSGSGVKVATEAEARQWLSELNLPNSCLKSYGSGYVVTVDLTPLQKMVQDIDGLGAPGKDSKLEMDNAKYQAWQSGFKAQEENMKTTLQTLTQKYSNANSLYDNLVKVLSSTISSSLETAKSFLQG

T2: PrgI (Salmonella Type III secretion needle protein), recombinant (Salmonella typhimurium (strain LT2) as …, UniProt P41784 1-80)
T2 sequence: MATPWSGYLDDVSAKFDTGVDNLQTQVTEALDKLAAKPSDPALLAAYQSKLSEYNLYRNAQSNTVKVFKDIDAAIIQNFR

B1: NBX0229 (VHH)
VHH: QVQLQESGGGLVQAGGSLRLSCAASGSGILFRISAMGWYRQAPGKERDLVAGISSGGSTNYADSVKGRFTISRDNAKNTVYLQMNSLKPEDTAVYYCNIVGRTDSWGQGTQVTVSS
notes: also called Clone 126
B2: NBX0224 (VHH)
VHH: QVQLQQSGGGLVQAGGSLRLSCAASGLTFSSYAMGWFRQAPGKEREFIVAIGWSGGSTYYADSVKGRFTISRDNAKNTVYLHMNSLKPEDTAVYYCAARRTTAWGKGTDYWGQGTQVTVSS
notes: also called Clone 121
B3: NBX0228 (VHH)
VHH: QVQLQESGGGLVQAGGSLRLSCAASGIDSSFYVMAWYRQAPGQQRELVASISMTSADSPRYADFVKGRFTISRDNAKSTVYLQMNSLKPEDTAVYYCYGLYRQVHWGQGTQVTVSS
notes: also called Clone 125
B4: NBX0230 (VHH)
VHH: QVQLQESGGGSVQAGGSLRLSCAASARTLSNYAMGWFRQAPGKEREFVATISRSGGSIHYADSVKGRFTISRDNAKNTVNLQMNSLKVEDTAVYYCGRARGTGYAYTALNQYDYDYWGQGTQVTVSS
notes: also called Clone 127
B5: NBX0234 (VHH)
VHH: QVQLQESGGGLVQAGGSLRLSCAASGRTFSTYAMGWFRQAPGKEREFVATISRSGDNIYYADSVKGRFTISRDNAKNTVSLQMNSLKVEDTAVYYCGRARGTGYAHTALNQYDYDYWGQGTQVTVSS
notes: also called Clone 131
B6: NBX0219 (VHH)
VHH: QVQLQESGGGLVQPGGSLSLSCTASGSAFSGGDAMGWYRRAPGKQREFVAGISSGGIANYMDSVKGRFTISRDNAKKAVYLQMTSLKPEDTALYYCNSITAVLRGNSGWGQGTQVTVSS
notes: also called Clone 116
B7: NBX0218 (VHH)
VHH: QVQLQESGGGLVQAGGSLSLSCTASGSAFSGDAMGWYRRAPGKQREFVAGISSGAITNYMDSVKGRFTISRDNAKNTVYLQMTKLKPEDTAVYYCNRIQAVLRGNSGWGQGTQVTVSS
notes: also called Clone 115
B8: NBX0231 (VHH)
VHH: QVQLQESGGGLVQAGGSLTLSCTTSGSAFSGDAMGWYRRAPGQEREFVAGISSGGITNYMNFVKGRFTISRDNAKNTVYLQMTSLKPEDTAVYYCNSIKAVLRGNSGWGQGTQVTVSS
notes: also called Clone 128
B9: NBX0235 (VHH)
VHH: QVQLQESGGGLVQAGGSLSLSCRVSGSAFSGDAMGWYRRAPGKQREFVAGISSGGIENYMDSVKGRFTISRDNAKNTVYLRMSSLKPEDTAVYYCNLIKAVLRGNSGWGQGTQVTVSS
notes: also called Clone 132
B10: NBX0220 (VHH)
VHH: QVQLQESGGGLVQAGGSLTLSCTASGSAFSGDAMGWYRRAPGKEREFVAGISSGGIPNYMGSVQGRFTISRDNAKNTVYLQMRRLKPEDTAVYYCNSISAVLRGNGVWGQGTQVTVSS
notes: also called Clone 117
B11: NBX0233 (VHH)
VHH: QVQLQESGGGLVQAGGSLSLSCTASGSAFSGDAMGWYRRAPGKQRDFVAGISSGHITNYMDSVKGRFTISRDNAKNTVYLQMTKLKPEDTAVYYCNSITAVLRGNSGWGQGTQVTVSS
notes: also called Clone 130
B12: NBX0223 (VHH)
VHH: QVQLQESGGGLVQAGGSLRLSCVASGIDSSFYVMAWYRQAPGKQRELVASISSADSPRYEDFVKGRFTISRDNGKNTVYLQMNSLKPEDTAVYYCYGLYRQVHWGQGTQVTVSS
notes: also called Clone 120
B13: NBX0226 (VHH)
VHH: QVQLQESGGGLVQAGGSLRLSCAASGITSSLYVMAWYRQAPGKQRELVAHINSGDSPRYADFVQGRFTISRDNGKNTVYLQMNSLKPEDTAVYYCYGLYRQVHWGQGTQVTVSS
notes: also called Clone 123
B14: NBX0221 (VHH)
VHH: QVQLQESGGGLVQAGGSLRLSCAASGLTFNNYAMGWFRQAPGKEREFVATISRDGTNTRYADSVKGRFTISRDNAKNTVDLQMNSLKPEDTAVYYCGVGRGTGYAYTAINEYDYSKWGQGTQVTVSS
notes: also called Clone 118
B15: NBX0227 (VHH)
VHH: QVQLQESGGGLVQAGGSLRLACAASGLTFNNYAMGWFRQAPGKEREFVATISRDGTSTRYADSVKGRFTISRDNAKNTVNLQMNRLKPEDTAVYYCGVGRGSGYAYSAINEYDYSSWGQGTQVTVSS
notes: also called Clone 124
B16: NBX0232 (VHH)
VHH: QVQLQESGGGLVQAGGSLRLSCAASGLTFHNYAMGWFRQAPGKEREFVATISRDGTNTHYADSVKGRFTISRDNAKNTVDLQMNSLKPEDTAVYYCGVGRGSGYAYTAINEYDYSKWGQGTQVTVSS
notes: also called Clone 129
B17: NBX0236 (VHH)
VHH: QVQLQESGGGLVQAGGSLRLSCAASGLTFNNYAMGWFRQAPGKEREFVATISRDGTNTRYADSVKGRFTISRDNAKNTVNLQMNSLKPEDTAVYYCGVGRGTGYAYTAIREHDYSSWGQGTQVTVSS
notes: also called Clone 133
B18: NBX0222 (VHH)
VHH: QVQLQESGGGLVQAGGSLRLSCAASGIDSSFYVMAWYRQAPGKQRELVASLGTPDSATYADFVKGRFIISRDNAKSTVYLQMNSLKPEDTAVYYCYGLYRQVYWGQGTQVTVSS
notes: also called Clone 119
B19: NBX0212 (VHH)
VHH: QVQLQESGGGLVQAGGSLRLSCAASTSILSINAMGWNREAPGNRREMVAIIAPGGTTNYADSVKGRFTITRDISKNTIYLQMNNLKPEDTGVYYCAADPGGQSPLSWGQGTQVTVSL
notes: also called Clone 109
B20: NBX0210 (VHH)
VHH: QVQLQESGGGLVQAGGSLRLACTASGDISSISVMGWNRQAPGKQQRELVAAIASGGSVKYADSVKGRFTISRDNTKNTVYLQMNSVNAEDTAVYYCAVDTGSPRLTWGQGTQVTVSS
notes: also called Clone 107
B21: NBX0209 (VHH)
VHH: QVQLQESGGGLVQAGGSLRLSCAASGFTFSSSIMAWYRQAPGKQREAIASIPSFGSAVYADSVKDRFTISRDNNKNMVYLQMNSLKPEDTAVYYCNTRLYWGQGTQVTVSS
notes: also called Clone 106
B22: NBX0215 (VHH)
VHH: QVQLQESGGGLVQAGGSLRLSCAASGFTFSSAIMAWYRQAPGKQREAIASIPSFGSAVYADSVKDRFTISRDNNKNMVYLQMDSLKPEDTAVYYCNTRLYWGQGTQVTVST
notes: also called Clone 112
B23: NBX0211 (VHH)
VHH: QVQLQESGGGLVQAGGSLRLSCAASGFTFSTNILAWYRQAPGKQREAIASITPFGSAVYANSVKDRFTISRDNNKNMVYLQMNSLKPEDTAVYSCNTQLYWGQGTQVTVST
notes: also called Clone 108
B24: NBX0207 (VHH)
VHH: QVQLQESGGGLVQAGKSLRLSCAASTAILSIDSMGWNRQAVGNQRELVAVIARGGSTKYADSVKGRFTITRDISKNTIYLQMNSLKPEDTGVYYCAADPGGASPLSWGQGTQVTVSL
notes: also called Clone 104
B25: NBX0104 (VHH)
VHH: QVQLVESGGGLVQPGGSLRLSCAASGVAFNSRIMGWYRQAPGKQRELVALITSGGSTNYADSVKGRFTISRNNAKKTVYLQMNSLKPEDTAVYYCNIRNYWGQGTQVTVSS
notes: also called Clone 93
B26: NBX0214 (VHH)
VHH: QVQLQESGGGLVQAGGSLRLSCAASGSISSITAMGWNRQAPGNQQRDLVAVIARGGMTKYADSVQGRFTISRDIAKNTVYLQMNSLKPEDTGVYYCALDNGDPRLHWGQGIQVTVSS
notes: also called Clone 111
B27: NBX0217 (VHH)
VHH: QVQLQESGGGLVQAGGSLRLSCAASGSISSITAMGWNRQAPGNQQRDLVAVIARGGMTKYADSVQGRFTISRDIANNTVYLQMNSLKPEDTGVYYCALYNGDPRLHWGQGIQVTVSS
notes: also called Clone 114
B28: NBX0208 (VHH)
VHH: QVQLQESGGGMVQAGGSLRLACTASGDISTIDVMGWNRQAPGKHRELVAIIARGGTIKYADSVKGRFTISRDNTKNTVTVYLQMNNVNAEDTAVYYCAVDTGSPRLTWGQGTQVTVSS
notes: also called Clone 105
B29: NBX0213 (VHH)
VHH: QVQLQESGGGSVQAGGSLRLSCAASGSISSITAMGWNRQAPGNQRELVAVIARGGMIKYDDSVKGRFTISRDIAKNTVFLQMDSLKPEDTGVYYCAVDNGDPRLHWGQGIQVTVSS
notes: also called Clone 110

For one assay, the target named is T1, PrgI-SipD. Kind of assay: phage ELISA, antigen-coated wells, anti-M13-HRP, A405. For orientation: An ELISA detects its analyte on a solid surface through an enzyme-linked reagent.
On to B1, for which the “binding over background (PBS-only wells)” value was no less than 4 fold.
B2: the “binding over background (PBS-only wells)” value was no less than 4 fold.
Regarding B3, the “binding over background (PBS-only wells)” value is no less than 4 fold.
Take B4: the “binding over background (PBS-only wells)” value was no less than 4 fold.
Same read-out and setting: the result for B5 reads no less than 4 fold; that for B6, no less than 4 fold; that for B7, no less than 4 fold.
On the same count and under the same terms, the result for B8 reads no less than 4 fold; that for B9, no less than 4 fold.
Take B10: the “binding over background (PBS-only wells)” value was no less than 4 fold.
As to B11, the “binding over background (PBS-only wells)” value was no less than 4 fold.
Same read-out and setting: the result for B12 reads no less than 4 fold; that for B13, no less than 4 fold.
For the molecule B14, the “binding over background (PBS-only wells)” value is no less than 4 fold.
Take B15: the “binding over background (PBS-only wells)” value was no less than 4 fold.
In the case of B16, the “binding over background (PBS-only wells)” value was no less than 4 fold.
In the case of B17, the “binding over background (PBS-only wells)” value is no less than 4 fold.
In the case of B18, the “binding over background (PBS-only wells)” value is no less than 4 fold.

A further assay deals with T2, PrgI (Salmonella Type III secretion …). The assay is described as above.
With B19, the “binding over background (PBS-only wells)” value was no less than 4 fold.
As to B20, the “binding over background (PBS-only wells)” value is no less than 4 fold.
On the same count and under the same terms, the result for B21 reads no less than 4 fold; that for B22, no less than 4 fold.
In the case of B23, the “binding over background (PBS-only wells)” value was no less than 4 fold.
On to B24, for which the “binding over background (PBS-only wells)” value is no less than 4 fold.
On to B25, for which the “binding over background (PBS-only wells)” value was no less than 4 fold.
In the case of B26, the “binding over background (PBS-only wells)” value was no less than 4 fold.
On to B27, for which the “binding over background (PBS-only wells)” value was no less than 4 fold.
Take B28: the “binding over background (PBS-only wells)” value is no less than 4 fold.
Same read-out and setting: the result for B29 reads no less than 4 fold.
